Test results published in paper PMC4323418.
Where two headings read alike, the source gives them in different places.

T1: CceR-6xHis (Rhodobacter sphaeroides 2.4.1, UniProt Q3J5X3 1-345)
T1 sequence: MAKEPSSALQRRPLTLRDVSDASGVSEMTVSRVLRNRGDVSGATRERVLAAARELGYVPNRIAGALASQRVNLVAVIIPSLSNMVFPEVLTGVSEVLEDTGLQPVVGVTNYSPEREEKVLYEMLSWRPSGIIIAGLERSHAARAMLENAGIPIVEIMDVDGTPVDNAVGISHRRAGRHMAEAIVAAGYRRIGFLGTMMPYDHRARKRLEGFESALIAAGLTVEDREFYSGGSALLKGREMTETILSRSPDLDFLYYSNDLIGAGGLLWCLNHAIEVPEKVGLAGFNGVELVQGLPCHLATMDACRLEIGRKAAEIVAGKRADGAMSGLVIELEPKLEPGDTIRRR

B1: zwf promoter fragment (dsDNA)
DNA 1: CGGGCGTCTTTCCACATTTACCCCGGCGGGGGGCGCGCTAGACTCGGGCCACGGCAGCCGCTAGAACGGCCGTTAGCGCTAACAGGCGAGGCAGC
DNA 2: GCTGCCTCGCCTGTTAGCGCTAACGGCCGTTCTAGCGGCTGCCGTGGCCCGAGTCTAGCGCGCCCCCCGCCGGGGTAAATGTGGAAAGACGCCCG
B2: bchF promoter fragment (dsDNA)
DNA 1: TCATCCAAGGAGGAACGCATGTCAAAGAAAATTGACACCTCAGGCAGCGGAGGCAGCCCATCCCCCGCTGAACTCACACTTAATCCTTGGATTTACGACAGAGTGTCGCAGCTTC
DNA 2: GAAGCTGCGACACTCTGTCGTAAATCCAAGGATTAAGTGTGAGTTCAGCGGGGGATGGGCTGCCTCCGCTGCCTGAGGTGTCAATTTTCTTTGACATGCGTTCCTCCTTGGATGA

Key:
CceR-6xHis [1] = target: T1, CceR-6xHis; test: EMSA
CceR-6xHis [2] = target: T1, CceR-6xHis; test: EMSA; remark: listed apart in the source

Row | Binder | binding result (CceR-6xHis [1]) | binding result (CceR-6xHis [2])
1 | B1 | binds | –
2 | B2 | – | no binding
